Data: patent US8729232

What was measured:
[1] = target: S. coelicolor sulfatase motif peptide … with Pro4 substituted by alanine
[2] = target: S. coelicolor sulfatase motif peptide … with Thr3 substituted by alanine
[3] = target: S. coelicolor sulfatase motif peptide … with Leu9 substituted by alanine
[4] = target: S. coelicolor sulfatase motif peptide … with Arg6 substituted by alanine

B1: Streptomyces coelicolor formylglycine generating enzyme (Strep FGE, SCO7548), recombinant (protein)
chain: AVAAPSPAAAAEPGPAARPRSTRGQVRLPGGEFAMGDAFGEGYPADGETPVHTVRLRPFHIDETAVTNARFAAFVKATGHVTDAERFGSSAVFHLVVAAPDADVLGSAAGAPWWINVRGAHWRRPEGARSDITGRPNHPVVHVSWNDATAYARWAGKRLPTEAEWEYAARGGLAGRRYAWGDELTPGGRWRCNIWQGRFPHVNTAEDGHLSTAPVKSYRPNGHGLWNTAGNVWEWCSDWFSPTYYAESPTVDPHGPGTGAARVLRGGSYLCHDSYCNRYRVAARSSNTPDSSSGNLGFRCANDADLTSGSAAE
- conversion of cysteine to FGly relative to the wild-type sequence [1]: substitution of Thr3, Pro4, Arg6, or Leu9 with alanine completely abrogated activity
- conversion of cysteine to FGly relative to the wild-type sequence [2]: substitution of Thr3, Pro4, Arg6, or Leu9 with alanine completely abrogated activity
- conversion of cysteine to FGly relative to the wild-type sequence [3]: substitution of Thr3, Pro4, Arg6, or Leu9 with alanine completely abrogated activity
- conversion of cysteine to FGly relative to the wild-type sequence [4]: substitution of Thr3, Pro4, Arg6, or Leu9 with alanine completely abrogated activity
